Reference: patent US20220025023A1 (AC IMMUNE, published 2022)
Where no end group is shown, it is not given here.

What was measured:
BSA = biological target: T1, BSA (bovine, UniProt P02769); assay: indirect ELISA, control coat in the 15-mer series, hybridoma supernatant
T1 construct: not specified; also called bovine serum albumin

TDP-215 peptide = biological target: T2, TDP-215 peptide (human); assay: indirect ELISA, 8-mer peptide library, OD 405 nm
T2 construct: same ELISA method as for the biotinylated 15-mers
T2 peptide: GDVMDVFI
Procedure: (§1) Serum-free supernatants were harvested from stable hybridomas. The supernatants containing antibodies of interest were then screened by an indirect ELISA assay to determine epitopes. Epitopes were mapped using a library of TDP-43 15-mer peptides. Briefly, 96-well streptavidin-coated 96-well ELISA plates were incubated with 5 μg/mL of biotinylated 15-mer peptides spanning the amino acids (aa) 199-285 of human TDP-43 with 9 aa offset and 6 aa overlap. Plates were washed thoroughly with 0.05% Tween-20/PBS and then blocked with 1% bovine serum albumin (BSA) in 0.05% Tween-20/PBS for 1 hour at 37° C. The antibody contained in the hybridoma supernatant was then added at the indicated dilutions, and incubated for 2 hours at 37° C. after which the plates were washed as described previously. An AP-conjugated anti-mouse IgG secondary antibody (Jackson ImmunoResearch Laboratories, United Kingdom) was added at 1/1000 dilution in 0.05% Tween-20/PBS for 1 hour at 37° C. After the final wash, plates were incubated with pNPP (Sigma-Aldrich, Switzerland) an AP substrate solution, and read at 405 nm using an ELISA plate reader (Tecan).
(§2) Furthermore, antibodies were tested using an indirect ELISA on a peptide library of 8-mer peptides with 7 aa overlap covering the sequence of human TDP-43 from aa 210 to aa 231, using the same ELISA method as describe previously in this section.

TDP-222 peptide = biological target: T3, TDP-222 peptide (human); assay: indirect ELISA, 8-mer peptide library
T3 construct: 8-mer of human TDP-43; same ELISA method as for the biotinylated 15-mers
T3 peptide: IPKPFRAF
Procedure: as §1, §2

TDP-214 peptide = biological target: T4, TDP-214 peptide (human); assay: indirect ELISA, 8-mer peptide library
T4 construct: 8-mer of human TDP-43; same ELISA method as for the biotinylated 15-mers
T4 peptide: YGDVMDVF
Procedure: as §1, §2

TDP-213 peptide = biological target: T5, TDP-213 peptide (human); assay: indirect ELISA, 8-mer peptide library
T5 construct: 8-mer of human TDP-43; same ELISA method as for the biotinylated 15-mers
T5 peptide: QYGDVMDV
Procedure: as §1, §2

TDP-219 peptide = biological target: T6, TDP-219 peptide (human); assay: indirect ELISA, 8-mer peptide library
T6 construct: 8-mer of human TDP-43; same ELISA method as for the biotinylated 15-mers
T6 peptide: DVFIPKPF
Procedure: as §1, §2

TDP-218 peptide = biological target: T7, TDP-218 peptide (human); assay: indirect ELISA, 8-mer peptide library
T7 construct: 8-mer of human TDP-43; same ELISA method as for the biotinylated 15-mers
T7 peptide: MDVFIPKP
Procedure: as §1, §2

TDP-217 peptide = biological target: T8, TDP-217 peptide (human); assay: indirect ELISA, 8-mer peptide library
T8 construct: 8-mer of human TDP-43; same ELISA method as for the biotinylated 15-mers
T8 peptide: VMDVFIPK
Procedure: as §1, §2

TDP-223 peptide = biological target: T9, TDP-223 peptide (human); assay: indirect ELISA, 8-mer peptide library
T9 construct: 8-mer of human TDP-43; same ELISA method as for the biotinylated 15-mers
T9 peptide: PKPFRAFA
Procedure: as §1, §2

TDP-224 peptide = biological target: T10, TDP-224 peptide (human); assay: indirect ELISA, 8-mer peptide library
T10 construct: 8-mer of human TDP-43; same ELISA method as for the biotinylated 15-mers
T10 peptide: KPFRAFAF
Procedure: as §1, §2

TDP-216 peptide = biological target: T11, TDP-216 peptide (human); assay: indirect ELISA, 8-mer peptide library
T11 construct: 8-mer of human TDP-43; same ELISA method as for the biotinylated 15-mers
T11 peptide: DVMDVFIP
Procedure: as §1, §2

TDP-211 peptide = biological target: T12, TDP-211 peptide (human); assay: indirect ELISA, 8-mer peptide library
T12 construct: 8-mer of human TDP-43; same ELISA method as for the biotinylated 15-mers
T12 peptide: FSQYGDVM
Procedure: as §1, §2

TDP-221 peptide = biological target: T13, TDP-221 peptide (human); assay: indirect ELISA, 8-mer peptide library
T13 construct: 8-mer of human TDP-43; same ELISA method as for the biotinylated 15-mers
T13 peptide: FIPKPFRA
Procedure: as §1, §2

TDP-220 peptide = biological target: T14, TDP-220 peptide (human); assay: indirect ELISA, 8-mer peptide library
T14 construct: 8-mer of human TDP-43; same ELISA method as for the biotinylated 15-mers
T14 peptide: VFIPKPFR
Procedure: as §1, §2

TDP-210 peptide = biological target: T15, TDP-210 peptide (human); assay: indirect ELISA, 8-mer peptide library
T15 construct: 8-mer of human TDP-43; same ELISA method as for the biotinylated 15-mers
T15 peptide: FFSQYGDV
Procedure: as §1, §2

TDP-212 peptide = biological target: T16, TDP-212 peptide (human); assay: indirect ELISA, 8-mer peptide library
T16 construct: 8-mer of human TDP-43; same ELISA method as for the biotinylated 15-mers
T16 peptide: SQYGDVMD
Procedure: as §1, §2

TDP-1 peptide = biological target: T17, TDP-1 peptide (human); assay: Luminex bead assay, antibody serial dilution, TDP-1 peptide beads
T17 construct: Immunogen peptide; conjugated to Luminex beads in the assay; also called TDP-43 aa 212-272
T17 peptide: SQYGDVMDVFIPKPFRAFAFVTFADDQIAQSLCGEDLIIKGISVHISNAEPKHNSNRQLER

TP-28 = biological target: T18, TP-28 (also: biotinylated, site not given here); assay: indirect ELISA, biotinylated 15-mer on streptavidin plate, hybridoma supernatant
T18 construct: also called TP-28 peptide
T18 peptide: CGEDLIIKGISVHIS
Procedure: as §1

TP-31 = biological target: T19, TP-31 (also: biotinylated, site not given here); assay: as above
T19 construct: also called TP-31 peptide
T19 peptide: ERSGRFGGNPGGFGN
Procedure: as §1

TP-27 = biological target: T20, TP-27 (also: biotinylated, site not given here); assay: as above
T20 construct: also called TP-27 peptide
T20 peptide: ADDQIAQSLCGEDLI
Procedure: as §1

TP-29 = biological target: T21, TP-29 (also: biotinylated, site not given here); assay: as above
T21 construct: also called TP-29 peptide
T21 peptide: ISVHISNAEPKHNSN
Procedure: as §1

TP-30 = biological target: T22, TP-30 (also: biotinylated, site not given here); assay: as above
T22 construct: also called TP-30 peptide
T22 peptide: PKHNSNRQLERSGRF
Procedure: as §1

TP-26 = biological target: T23, TP-26 (also: biotinylated, site not given here); assay: as above
T23 construct: also called TP-26 peptide
T23 peptide: FRAFAFVTFADDQIA
Procedure: as §1

TDP-3 peptide = biological target: T24, TDP-3 peptide (human); assay: Luminex bead assay, TDP-3 peptide beads (irrelevant target)
T24 construct: Irrelevant control peptide; conjugated to Luminex beads in the assay; also called TDP-43 aa 310-370; irrelevant target
T24 peptide: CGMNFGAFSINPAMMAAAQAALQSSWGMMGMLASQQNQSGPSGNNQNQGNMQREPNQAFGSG

TP-24 peptide = biological target: T25, TP-24 peptide (human, also: biotinylated, site not given here); assay: indirect ELISA, biotinylated 15-mer peptide on streptavidin plate, hybridoma supernatant
T25 construct: 15-mer of human TDP-43 from the library spanning aa 199-285; captured on streptavidin plates
T25 peptide: REFFSQYGDVMDVFI
Procedure: as §1

TP-25 peptide = biological target: T26, TP-25 peptide (human, also: biotinylated, site not given here); assay: as above
T26 construct: 15-mer of human TDP-43 from the library spanning aa 199-285; captured on streptavidin plates
T26 peptide: VMDVFIPKPFRAFAF
Procedure: as §1

T1 sequence (P02769 25-607 limits assumed): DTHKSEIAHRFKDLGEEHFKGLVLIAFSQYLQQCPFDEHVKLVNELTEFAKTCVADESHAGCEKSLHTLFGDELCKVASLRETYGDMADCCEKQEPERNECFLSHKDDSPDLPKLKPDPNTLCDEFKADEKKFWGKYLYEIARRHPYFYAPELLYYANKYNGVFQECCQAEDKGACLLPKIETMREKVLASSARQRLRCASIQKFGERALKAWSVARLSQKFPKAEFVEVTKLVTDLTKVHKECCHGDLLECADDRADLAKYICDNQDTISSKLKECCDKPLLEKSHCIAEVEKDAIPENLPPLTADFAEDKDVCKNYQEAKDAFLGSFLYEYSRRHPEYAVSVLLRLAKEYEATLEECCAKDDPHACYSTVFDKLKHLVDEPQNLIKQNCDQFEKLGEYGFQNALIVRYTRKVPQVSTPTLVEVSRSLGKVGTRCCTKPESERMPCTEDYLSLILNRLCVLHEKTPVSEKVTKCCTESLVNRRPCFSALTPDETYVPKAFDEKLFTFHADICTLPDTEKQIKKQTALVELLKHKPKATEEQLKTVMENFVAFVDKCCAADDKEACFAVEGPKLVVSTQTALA

B1: ACI-7062-412E12-Ab1 (antibody, IgG1, V domains shown)
VH: DVQLVESGGGLVQPGGSRRLSCAASGFTFSRFGMHWVRQAPEKGLEWVAYIRSGSDIIYYADSVKGRFTISRDNPENTLFLQMTSLRSEDTAMYYCARSGTTVPFDYWGQGTSLTVSS
VL: DIVMTQSPSSLAMSVGQKVTMSCKSSQSLLNSGDQKNYLAWYQQKPGQSPELLLYFASTRASGVPDRFIGSGSGTDFSLTISSVQAEDLADYFCQQHYSIPLTFGAGTKLELKR
notes: also called 412E12A2; clone 10
B1: no binding (BSA); binds (TDP-215 peptide); no binding (TDP-222 peptide). B1: no binding (TDP-214 peptide); no binding (TDP-213 peptide); no binding (TDP-219 peptide). B1: no binding (TDP-218 peptide); no binding (TDP-217 peptide); no binding (TDP-223 peptide). B1: no binding (TDP-224 peptide); no binding (TDP-216 peptide); no binding (TDP-211 peptide). B1: no binding (TDP-221 peptide); no binding (TDP-220 peptide); no binding (TDP-210 peptide). The binding result (TDP-212 peptide) was “no binding”, the EC50 (TDP-1 peptide) was under 10 pM and the binding result (TP-28) was “no binding”. B1: no binding (TP-31); no binding (TP-27); no binding (TP-29). B1: no binding (TP-30); no binding (TP-26); no binding (TDP-3 peptide). For the same binder, the OD (TP-24 peptide) was 3.2 O.D. (405 nm) and the OD (TP-25 peptide) was 1.2 O.D. (405 nm).

B2: ACI-7062-414A5-Ab1 (antibody, IgG2a, V domains shown)
VH: DVQLVESGGGLVQPGGSRRLSCAASGFTFSSFGMHWVRQAPEKGLEWVAYIRSGSDIIYYADTVKGRFTISRDNPENTLFLEMTRLRSEDTAMYYCARSGTTVPFDYWGQGTSLTVSS
VL: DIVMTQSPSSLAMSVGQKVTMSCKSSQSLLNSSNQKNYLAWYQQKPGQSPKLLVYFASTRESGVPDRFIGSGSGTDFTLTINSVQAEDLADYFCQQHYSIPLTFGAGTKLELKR
notes: also called 414A5D2; clone 12
B2: no binding (BSA); binds (TDP-215 peptide); no binding (TDP-222 peptide). B2: no binding (TDP-214 peptide); no binding (TDP-213 peptide); no binding (TDP-219 peptide). B2: no binding (TDP-218 peptide); no binding (TDP-217 peptide); no binding (TDP-223 peptide). B2: no binding (TDP-224 peptide); no binding (TDP-216 peptide); no binding (TDP-211 peptide). B2: no binding (TDP-221 peptide); no binding (TDP-220 peptide); no binding (TDP-210 peptide). For the same binder, the binding result (TDP-212 peptide) was “no binding”, the EC50 (TDP-1 peptide) was under 10 pM and the binding result (TP-28) was “no binding”. B2: no binding (TP-31); no binding (TP-27); no binding (TP-29). B2: no binding (TP-30); no binding (TP-26); no binding (TDP-3 peptide). The OD (TP-24 peptide) was 3.9 O.D. (405 nm) and the OD (TP-25 peptide) was 1.2 O.D. (405 nm).

B3: ACI-7062-415C4-Ab1 (antibody, IgG1, V domains shown)
VH: QVTLKESGPGILQPSQTLSLTCSFSGFSLSTYGIGVGWIRQPSGKGLEWLAHIWWNDNKYYKTALKSRLTISKDTSNNQVFLKIASVDTADSATYYCARVYGNLYYFGYWGQGTTLTVSS
VL: DVLMTQTPLSLPVSLGDQASISCRSSQSIVHSTGNTYLEWYLQKPGQSPKLLIYKVSNRFSGVPDRFSGSGSGTDFTLKISRVEAEDLGVYYCFQGSRVPTFGAGTKLELKR
notes: also called 415C4C6; clone 14
B3: no binding (BSA); binds (TDP-215 peptide); no binding (TDP-222 peptide). B3: no binding (TDP-214 peptide); no binding (TDP-213 peptide); no binding (TDP-219 peptide). B3: no binding (TDP-218 peptide); no binding (TDP-217 peptide); no binding (TDP-223 peptide). B3: no binding (TDP-224 peptide); no binding (TDP-216 peptide); no binding (TDP-211 peptide). B3: no binding (TDP-221 peptide); no binding (TDP-220 peptide); no binding (TDP-210 peptide). The binding result (TDP-212 peptide) was “no binding”, the EC50 (TDP-1 peptide) was under 10 pM and the binding result (TP-28) was “no binding”. B3: no binding (TP-31); no binding (TP-27); no binding (TP-29). B3: no binding (TP-30); no binding (TP-26); no binding (TDP-3 peptide). The OD (TP-24 peptide) was 3.8 O.D. (405 nm) and the OD (TP-25 peptide) was 1.2 O.D. (405 nm).
